Consider three molecules from article PMC6005164, “A novel thymidylate synthase from the Vibrionales, Alteromonadales, Aeromonadales, and Pasteurellales (VAAP) clade with altered nucleotide and folate binding sites” (PeerJ, 2018).

The target in one data set is T1, VpTS (Vibrio parahaemolyticus, UniProt Q87SA0).
T1 construct: gene thyA; full-length from codon-optimized synthetic gene in pJexpress414; E. coli BL21(DE3)-SI; 35,944 Da with tag; homodimer 70 kDa
T1 sequence (Q87SA0 1-283): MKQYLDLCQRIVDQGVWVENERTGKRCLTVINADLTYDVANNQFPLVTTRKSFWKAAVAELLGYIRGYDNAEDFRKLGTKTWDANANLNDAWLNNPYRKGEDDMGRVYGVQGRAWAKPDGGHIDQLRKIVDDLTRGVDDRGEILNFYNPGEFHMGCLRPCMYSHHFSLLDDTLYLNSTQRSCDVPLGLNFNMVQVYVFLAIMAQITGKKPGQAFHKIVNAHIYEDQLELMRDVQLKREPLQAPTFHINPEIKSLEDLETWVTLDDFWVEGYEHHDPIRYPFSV
The experiment in a line: spectrophotometric dihydrofolate formation at […] nm, dose-response fit. It is filed as biochemical.

Substrate in data set [1]: O=c1ccn([C@H]2C[C@H](O)[C@@H](COP(=O)(O)O)O2)c(=O)[nH]1
The experiment in a line: purified protein. The settings on record: co-substrate mTHF, dUMP 0–150 µM, 50 mM Tris-HCl pH 7.5, 25 mM MgCl2, 5 mM DTT, 1 mM EDTA, 30 °C. It is filed as biochemical, Vibrio parahaemolyticus.

Substrate in data set [2]: Nc1nc2c(c(=O)[nH]1)N1CN(c3ccc(C(=O)N[C@@H](CCC(=O)O)C(=O)O)cc3)C[C@H]1CN2
The experiment in a line: purified protein. The settings on record: co-substrate dUMP, mTHF 0–300 µM, 50 mM Tris-HCl pH 7.5, 25 mM MgCl2, 5 mM DTT, 1 mM EDTA, 30 °C, varied: cofactor. It is filed as biochemical, Vibrio parahaemolyticus.

Data set [3] deals with the molecule itself. As to the kind of experiment: SEC; Superdex 75 10/300, 1 mL/min, Tris HCl 20 mM pH 7.5, NaCl 100 mM; native molecular weight from a Kav vs. log MW plot of standards. (In gel filtration, larger molecules generally elute earlier.)

For the molecule `COc1cc(Cc2cnc(N)nc2N)cc(OC)c1OC` [trimethoprim], at VpTS, the IC50 – broadly, the midpoint of a concentration-inhibition curve – stood at 106 ± 11.4 µM.

B1: VpTS (Vibrio parahaemolyticus RIMD 2210633) (protein)
chain: MKQYLDLCQRIVDQGVWVENERTGKRCLTVINADLTYDVANNQFPLVTTRKSFWKAAVAELLGYIRGYDNAEDFRKLGTKTWDANANLNDAWLNNPYRKGEDDMGRVYGVQGRAWAKPDGGHIDQLRKIVDDLTRGVDDRGEILNFYNPGEFHMGCLRPCMYSHHFSLLDDTLYLNSTQRSCDVPLGLNFNMVQVYVFLAIMAQITGKKPGQAFHKIVNAHIYEDQLELMRDVQLKREPLQAPTFHINPEIKSLEDLETWVTLDDFWVEGYEHHDPIRYPFSV
notes: full-length from codon-optimized synthetic gene in pJexpress414; E. coli BL21(DE3)-SI; 35,944 Da with tag; homodimer 70 kDa
With B1, in the data set “purified protein [1]”, the Km (commonly the concentration of substrate that gives half-maximal velocity) worked out at 27.3 ± 4.3 µM and the catalytic constant (kcat) – broadly, the maximal rate divided by the concentration of active sites – was 0.3 s⁻¹. In the data set “purified protein [2]”, the Km is on record as 96.3 ± 18 µM and the kcat turned out to be 0.3 s⁻¹.

B2: recombinant thymidylate synthase from Vibrio parahaemolyticus FIM-S1708+ (enzyme, UniProt Q87SA0 1-283, looked up)
chain: MKQYLDLCQRIVDQGVWVENERTGKRCLTVINADLTYDVANNQFPLVTTRKSFWKAAVAELLGYIRGYDNAEDFRKLGTKTWDANANLNDAWLNNPYRKGEDDMGRVYGVQGRAWAKPDGGHIDQLRKIVDDLTRGVDDRGEILNFYNPGEFHMGCLRPCMYSHHFSLLDDTLYLNSTQRSCDVPLGLNFNMVQVYVFLAIMAQITGKKPGQAFHKIVNAHIYEDQLELMRDVQLKREPLQAPTFHINPEIKSLEDLETWVTLDDFWVEGYEHHDPIRYPFSV
notes: thymidylate synthase (folate-dependent, thyA) of Vibrio parahaemolyticus strain FIM-S1708+, GenBank WP_100088861.1; codon-optimized synthetic gene in pJexpress414; theoretical mass with tag 35,944 Da; the 35 kDa band is compared with the mass that includes the 10-His tag, so the tag was probably still on the protein in the size exclusion run; also called VpTS; TS
On to B2, for which the stoichiometry N (commonly a count of units in the complex or per binding partner) in data set [3] amounted to 2.
